Molecular target: T1, 14-3-3 υ protein, recombinant (A. thaliana, UniProt P42645 1-268)
T1 construct: 14-3-3 υ, A. thaliana, AT5G16050; construct and tags not described
T1 sequence (looked up): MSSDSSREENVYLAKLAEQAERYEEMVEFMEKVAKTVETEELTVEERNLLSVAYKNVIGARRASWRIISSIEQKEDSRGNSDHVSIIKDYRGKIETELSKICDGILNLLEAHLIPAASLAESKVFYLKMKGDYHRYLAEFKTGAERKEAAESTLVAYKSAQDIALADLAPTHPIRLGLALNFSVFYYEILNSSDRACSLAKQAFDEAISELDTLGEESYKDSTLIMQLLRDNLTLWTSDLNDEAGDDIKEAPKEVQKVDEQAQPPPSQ
Experiment: far-Western, overlay or dot blot; dilution series of recombinant 14-3-3 υ spotted on nitrocellulose; incubated with PRX-IIE or its phospho-mimicry variants in TBS with either 1 mM DTT or 100 µM H2O2 overnight at 4 °C; detected with anti-PRX-IIE antibody; spots quantified with ImageJ
Details: both partners purified

B1: Peroxiredoxin IIE (PRX-IIE), wild type, His6-tagged recombinant (enzyme, A. thaliana, UniProt Q949U7 71-234, looked up)
chain: ASISVGDKLPDSTLSYLDPSTGDVKTVTVSSLTAGKKTILFAVPGAFTPTCSQKHVPGFVSKAGELRSKGIDVIACISVNDAFVMEAWRKDLGINDEVMLLSDGNGEFTGKLGVELDLRDKPVGLGVRSRRYAILADDGVVKVLNLEEGGAFTNSSAEDMLKAL
notes: Peroxiredoxin IIE, A. thaliana, AT3G52960, cloned into pET28a (NdeI/BamHI); also called PRX-IIE WT; WT PRX-IIE; source: E. coli BL21 (DE3)pLysS, purified (Ni-NTA, dialysis)
fold improvement of binding under oxidizing conditions (100 µM H2O2) against the other conditions: 2.5 fold
